Numbered stars: 1 amine (or outer) side, 2 acyl side, 3 side chain; on linkers, the order of the positions; unused ones are H or OH. * marks the point of attachment. C20 diacid = O=C(O)CCCCCCCCCCCCCCCCCCC(=O)*; C18 diacid = O=C(O)CCCCCCCCCCCCCCCCC(=O)*; γGlu = O=C(O)[C@H](CCC(=O)[*:2])N[*:1]
T1: human amylin 3(a) receptor (human calcitonin receptor co-expressed with RAMP-3) (human, UniProt P30988 25-474; O60896 24-148, limits assumed)
T1 sequence (looked up) 1: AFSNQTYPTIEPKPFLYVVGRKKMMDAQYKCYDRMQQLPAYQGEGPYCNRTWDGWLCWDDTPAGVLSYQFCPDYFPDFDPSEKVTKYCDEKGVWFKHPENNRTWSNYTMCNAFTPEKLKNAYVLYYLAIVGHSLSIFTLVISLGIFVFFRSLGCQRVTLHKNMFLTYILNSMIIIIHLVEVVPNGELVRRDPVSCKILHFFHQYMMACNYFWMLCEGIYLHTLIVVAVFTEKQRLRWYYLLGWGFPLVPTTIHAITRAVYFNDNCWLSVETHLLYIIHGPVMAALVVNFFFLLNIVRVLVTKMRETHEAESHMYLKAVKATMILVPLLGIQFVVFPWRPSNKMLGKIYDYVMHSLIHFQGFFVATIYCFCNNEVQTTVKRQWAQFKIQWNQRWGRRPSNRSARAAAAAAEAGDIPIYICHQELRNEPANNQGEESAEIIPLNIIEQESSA
T1 sequence (looked up) 2: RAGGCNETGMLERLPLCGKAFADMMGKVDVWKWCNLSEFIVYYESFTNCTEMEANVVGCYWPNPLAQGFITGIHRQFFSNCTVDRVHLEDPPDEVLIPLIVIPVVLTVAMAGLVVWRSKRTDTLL

T2: human calcitonin receptor (human, UniProt P30988 25-474)
T2 sequence (looked up): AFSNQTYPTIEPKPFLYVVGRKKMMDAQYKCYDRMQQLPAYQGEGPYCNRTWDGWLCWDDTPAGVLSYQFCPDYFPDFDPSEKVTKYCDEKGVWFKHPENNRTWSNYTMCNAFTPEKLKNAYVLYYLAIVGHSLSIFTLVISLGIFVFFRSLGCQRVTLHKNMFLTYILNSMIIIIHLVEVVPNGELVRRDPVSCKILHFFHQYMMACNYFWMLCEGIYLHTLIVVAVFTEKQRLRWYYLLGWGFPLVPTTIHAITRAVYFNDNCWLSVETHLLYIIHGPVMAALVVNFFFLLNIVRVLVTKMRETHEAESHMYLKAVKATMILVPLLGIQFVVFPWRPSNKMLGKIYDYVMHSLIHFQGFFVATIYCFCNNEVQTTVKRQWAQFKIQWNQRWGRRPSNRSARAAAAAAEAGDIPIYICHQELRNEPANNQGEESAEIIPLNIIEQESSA


Assays:
[1] = target: T1, human amylin 3(a) receptor (human …); assay: cell-based or functional assay
[2] = target: T2, human calcitonin receptor; assay: cell-based or functional assay

Binder	hAmylin-R funct. EC50 (pM) [1] [pM]	hCTR funct. EC50 (pM) [2] [pM]
{C20 diacid-γGlu}-ASELSTAALGKLSAELHELATYPKTETGSGSY-NH2 (SMILES CC(C)C[C@H](NC(=O)[C@H](C)NC(=O)[C@H](C)NC(=O)[C@@H](NC(=O)[C@H](CO)NC(=O)[C@H](CC(C)C)NC(=O)[C@H](CCC(=O)O)NC(=O)[C@H](CO)NC(=O)[C@H](C)NC(=O)CC[C@H](NC(=O)CCCCCCCCCCCCCCCCCCC(=O)O)C(=O)O)[C@@H](C)O)C(=O)NCC(=O)N[C@@H](CCCCN)C(=O)N[C@@H](CC(C)C)C(=O)N[C@@H](CO)C(=O)N[C@@H](C)C(=O)N[C@@H](CCC(=O)O)C(=O)N[C@@H](CC(C)C)C(=O)N[C@@H](Cc1c[nH]cn1)C(=O)N[C@@H](CCC(=O)O)C(=O)N[C@@H](CC(C)C)C(=O)N[C@@H](C)C(=O)N[C@H](C(=O)N[C@@H](Cc1ccc(O)cc1)C(=O)N1CCC[C@H]1C(=O)N[C@@H](CCCCN)C(=O)N[C@H](C(=O)N[C@@H](CCC(=O)O)C(=O)N[C@H](C(=O)NCC(=O)N[C@@H](CO)C(=O)NCC(=O)N[C@@H](CO)C(=O)N[C@@H](Cc1ccc(O)cc1)C(N)=O)[C@@H](C)O)[C@@H](C)O)[C@@H](C)O) [[N-terminal(C20 diacid-gGlu), des1, 12K, 23Y, 25K, 30S, 31G, 33Y]mimylin]	51	37
{C20 diacid-γGlu}-ASGLSTAVLGRLSAELHELATYPRTETGSGTP-NH2 (SMILES CC(C)C[C@H](NC(=O)CNC(=O)[C@H](CO)NC(=O)[C@H](C)NC(=O)CC[C@H](NC(=O)CCCCCCCCCCCCCCCCCCC(=O)O)C(=O)O)C(=O)N[C@@H](CO)C(=O)N[C@H](C(=O)N[C@@H](C)C(=O)N[C@H](C(=O)N[C@@H](CC(C)C)C(=O)NCC(=O)N[C@@H](CCCNC(=N)N)C(=O)N[C@@H](CC(C)C)C(=O)N[C@@H](CO)C(=O)N[C@@H](C)C(=O)N[C@@H](CCC(=O)O)C(=O)N[C@@H](CC(C)C)C(=O)N[C@@H](Cc1c[nH]cn1)C(=O)N[C@@H](CCC(=O)O)C(=O)N[C@@H](CC(C)C)C(=O)N[C@@H](C)C(=O)N[C@H](C(=O)N[C@@H](Cc1ccc(O)cc1)C(=O)N1CCC[C@H]1C(=O)N[C@@H](CCCNC(=N)N)C(=O)N[C@H](C(=O)N[C@@H](CCC(=O)O)C(=O)N[C@H](C(=O)NCC(=O)N[C@@H](CO)C(=O)NCC(=O)N[C@H](C(=O)N1CCC[C@H]1C(N)=O)[C@@H](C)O)[C@@H](C)O)[C@@H](C)O)[C@@H](C)O)C(C)C)[C@@H](C)O) [[N-terminal(C20 diacid-gGlu), des1, 4G, 9V, 23Y, 30S, 31G, 32T]mimylin]	47	28
{C20 diacid-γGlu}-ASELSTASLGRLSAELHELSTYPRTETGSGSY-NH2 (SMILES CC(C)C[C@H](NC(=O)[C@H](CO)NC(=O)[C@H](C)NC(=O)[C@@H](NC(=O)[C@H](CO)NC(=O)[C@H](CC(C)C)NC(=O)[C@H](CCC(=O)O)NC(=O)[C@H](CO)NC(=O)[C@H](C)NC(=O)CC[C@H](NC(=O)CCCCCCCCCCCCCCCCCCC(=O)O)C(=O)O)[C@@H](C)O)C(=O)NCC(=O)N[C@@H](CCCNC(=N)N)C(=O)N[C@@H](CC(C)C)C(=O)N[C@@H](CO)C(=O)N[C@@H](C)C(=O)N[C@@H](CCC(=O)O)C(=O)N[C@@H](CC(C)C)C(=O)N[C@@H](Cc1c[nH]cn1)C(=O)N[C@@H](CCC(=O)O)C(=O)N[C@@H](CC(C)C)C(=O)N[C@@H](CO)C(=O)N[C@H](C(=O)N[C@@H](Cc1ccc(O)cc1)C(=O)N1CCC[C@H]1C(=O)N[C@@H](CCCNC(=N)N)C(=O)N[C@H](C(=O)N[C@@H](CCC(=O)O)C(=O)N[C@H](C(=O)NCC(=O)N[C@@H](CO)C(=O)NCC(=O)N[C@@H](CO)C(=O)N[C@@H](Cc1ccc(O)cc1)C(N)=O)[C@@H](C)O)[C@@H](C)O)[C@@H](C)O) [[N-terminal(C20 diacid-gGlu), des1, 9S, 21S, 23Y, 30S, 31G, 33Y]mimylin]	17	16
{C20 diacid-γGlu}-ASELSTATLGRLSAELHELSTYPRTETGSGSY-NH2 (SMILES CC(C)C[C@H](NC(=O)[C@H](CCCNC(=N)N)NC(=O)CNC(=O)[C@H](CC(C)C)NC(=O)[C@@H](NC(=O)[C@H](C)NC(=O)[C@@H](NC(=O)[C@H](CO)NC(=O)[C@H](CC(C)C)NC(=O)[C@H](CCC(=O)O)NC(=O)[C@H](CO)NC(=O)[C@H](C)NC(=O)CC[C@H](NC(=O)CCCCCCCCCCCCCCCCCCC(=O)O)C(=O)O)[C@@H](C)O)[C@@H](C)O)C(=O)N[C@@H](CO)C(=O)N[C@@H](C)C(=O)N[C@@H](CCC(=O)O)C(=O)N[C@@H](CC(C)C)C(=O)N[C@@H](Cc1c[nH]cn1)C(=O)N[C@@H](CCC(=O)O)C(=O)N[C@@H](CC(C)C)C(=O)N[C@@H](CO)C(=O)N[C@H](C(=O)N[C@@H](Cc1ccc(O)cc1)C(=O)N1CCC[C@H]1C(=O)N[C@@H](CCCNC(=N)N)C(=O)N[C@H](C(=O)N[C@@H](CCC(=O)O)C(=O)N[C@H](C(=O)NCC(=O)N[C@@H](CO)C(=O)NCC(=O)N[C@@H](CO)C(=O)N[C@@H](Cc1ccc(O)cc1)C(N)=O)[C@@H](C)O)[C@@H](C)O)[C@@H](C)O) [[N-terminal(C20 diacid-gGlu), des1, 9T, 21S, 23Y, 30S, 31G, 33Y]mimylin]	20	23
{C20 diacid-γGlu}-ASELSTAALGRLSAELHELSTYPRTETGSGSY-NH2 (SMILES CC(C)C[C@H](NC(=O)[C@H](C)NC(=O)[C@H](C)NC(=O)[C@@H](NC(=O)[C@H](CO)NC(=O)[C@H](CC(C)C)NC(=O)[C@H](CCC(=O)O)NC(=O)[C@H](CO)NC(=O)[C@H](C)NC(=O)CC[C@H](NC(=O)CCCCCCCCCCCCCCCCCCC(=O)O)C(=O)O)[C@@H](C)O)C(=O)NCC(=O)N[C@@H](CCCNC(=N)N)C(=O)N[C@@H](CC(C)C)C(=O)N[C@@H](CO)C(=O)N[C@@H](C)C(=O)N[C@@H](CCC(=O)O)C(=O)N[C@@H](CC(C)C)C(=O)N[C@@H](Cc1c[nH]cn1)C(=O)N[C@@H](CCC(=O)O)C(=O)N[C@@H](CC(C)C)C(=O)N[C@@H](CO)C(=O)N[C@H](C(=O)N[C@@H](Cc1ccc(O)cc1)C(=O)N1CCC[C@H]1C(=O)N[C@@H](CCCNC(=N)N)C(=O)N[C@H](C(=O)N[C@@H](CCC(=O)O)C(=O)N[C@H](C(=O)NCC(=O)N[C@@H](CO)C(=O)NCC(=O)N[C@@H](CO)C(=O)N[C@@H](Cc1ccc(O)cc1)C(N)=O)[C@@H](C)O)[C@@H](C)O)[C@@H](C)O) [[N-terminal(C20 diacid-gGlu), des1, 21S, 23Y, 30S, 31G, 33Y]mimylin]	50	34
{C18 diacid-γGlu}-ASEVSTAVVGRLSAELHEVATLPRTETGSGSP-NH2 (SMILES CC(C)C[C@H](NC(=O)[C@H](CCCNC(=N)N)NC(=O)CNC(=O)[C@@H](NC(=O)[C@@H](NC(=O)[C@H](C)NC(=O)[C@@H](NC(=O)[C@H](CO)NC(=O)[C@@H](NC(=O)[C@H](CCC(=O)O)NC(=O)[C@H](CO)NC(=O)[C@H](C)NC(=O)CC[C@H](NC(=O)CCCCCCCCCCCCCCCCC(=O)O)C(=O)O)C(C)C)[C@@H](C)O)C(C)C)C(C)C)C(=O)N[C@@H](CO)C(=O)N[C@@H](C)C(=O)N[C@@H](CCC(=O)O)C(=O)N[C@@H](CC(C)C)C(=O)N[C@@H](Cc1c[nH]cn1)C(=O)N[C@@H](CCC(=O)O)C(=O)N[C@H](C(=O)N[C@@H](C)C(=O)N[C@H](C(=O)N[C@@H](CC(C)C)C(=O)N1CCC[C@H]1C(=O)N[C@@H](CCCNC(=N)N)C(=O)N[C@H](C(=O)N[C@@H](CCC(=O)O)C(=O)N[C@H](C(=O)NCC(=O)N[C@@H](CO)C(=O)NCC(=O)N[C@@H](CO)C(=O)N1CCC[C@H]1C(N)=O)[C@@H](C)O)[C@@H](C)O)[C@@H](C)O)C(C)C) [[N-terminal(C18 diacid-gGlu), des1, 5V, 9V, 10V, 20V, 30S, 31G]mimylin]	12	6
